These results are taken from PMC8965487.

For the assay, the target named is Cy5-labeled extracellular domain of human Angiotensin-Converting Enzyme 2 (ACE2) (UniProt Q9BYF1). The conditions noted are these: parent: est. 0; read off a plot.
For “SARS-CoV-2 wild-type Spike S1 A222V; D614G”, the other: Log2 EC50 (WT/MT) was -0.1. As to SARS-CoV-2 wild-type Spike S1 D614G, the other: Log2 EC50 (WT/MT) is -0.05.

For “SARS-CoV-2 wild-type Spike S1 HV69-70 del; N501Y; D614G”, the other: Log2 EC50 (WT/MT) is -0.05. In the case of “SARS-CoV-2 wild-type Spike S1 L18F; D614G” it was 0.35; in that of SARS-CoV-2 wild-type Spike S1 N234Q, -0.05; in that of “SARS-CoV-2 wild-type Spike S1 T20N; D614G”, 0.2. For SARS-CoV-2 wild-type Spike S1+S2 D614G, the other: Log2 EC50 (WT/MT) was found to be 0.45.
